Tests used:
[1] = molecular target: CD79b CAR with CD8α hinge as the spacer; assay: flow cytometry, Jurkat cells transduced with construct CAR-2, fluorescently labelled second antibody; gate set on untransduced (UTD) cells
Target sequence (P01732 138-182): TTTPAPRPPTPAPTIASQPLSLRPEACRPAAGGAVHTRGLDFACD

[2] = molecular target: CD79b CAR with CD8α hinge as the spacer; assay: flow cytometry, Jurkat cells transduced with construct CAR-1, fluorescently labelled second antibody; gate set on untransduced (UTD) cells
[3] = molecular target: CD79b CAR with CD8α hinge as the spacer; assay: flow cytometry, Jurkat cells transduced with construct CAR-5, fluorescently labelled second antibody; gate set on untransduced (UTD) cells
[4] = molecular target: CD79b CAR with CD8α hinge as the spacer; assay: flow cytometry, Jurkat cells transduced with construct CAR-4, fluorescently labelled second antibody; gate set on untransduced (UTD) cells
[5] = molecular target: CD79b CAR with CD8α hinge as the spacer; assay: flow cytometry, Jurkat cells transduced with construct CAR-3, fluorescently labelled second antibody; gate set on untransduced (UTD) cells
[6] = molecular target: CD79b CAR with CD8α hinge as the spacer; assay: flow cytometry, Jurkat cells transduced with construct CAR-6, fluorescently labelled second antibody; gate set on untransduced (UTD) cells

B1: mouse FC version of CD8B575 (purified from mouse hybridoma clone) (antibody, V domains shown)
VH: QVQLQQSGGGLVQPGGSLKLSCAASGFTFSNYYMSWARQTPEKRLEWVAYISNDGDATYYPDSVKGRFTISRDNAKNTLYLQMSSLKSEDTAMYYCTREDYYSDYWFASWGQGTTVTVSS
VL: DIVMTQSQKFMSTTIEDRVSITCKASQNVGTAVAWYQQKPGQSPKLLIYSTSNRYTGVPDRFTGSGSGTDFTLTISNIQSEDLADYFCQQYSSYPLTFGGGTKLEIK
**Q.** For B1, which % positive (CAR+ Jurkat cells) [1] is on record?
**A.** The % positive (CAR+ Jurkat cells) was 41.7%.

**Q.** And the % positive (CAR+ Jurkat cells) [2]?
**A.** Its % positive (CAR+ Jurkat cells) is 13%.

**Q.** What about the % positive (CAR+ Jurkat cells) [3] of the same binder?
**A.** Its % positive (CAR+ Jurkat cells) is 84.5%.

**Q.** What about the % positive (CAR+ Jurkat cells) [4] of the same binder?
**A.** The % positive (CAR+ Jurkat cells) was 54.1%.

**Q.** What about the % positive (CAR+ Jurkat cells) [5] of the same binder?
**A.** The % positive (CAR+ Jurkat cells) was 15.9%.

**Q.** What about the % positive (CAR+ Jurkat cells) [6] of the same binder?
**A.** Its % positive (CAR+ Jurkat cells) is 84%.

Source: US20230174651A1
